Consider two molecules from paper PMC10995199, “Architecture and regulation of filamentous human cystathionine beta-synthase” (Nature Communications, 2024).

Bounds are passed on as bounds.

Conditions in all cases: remark: other sources report otherwise
Experiment [1] deals with T1, full-length human cystathionine beta-synthase, N-terminal His-tag removed during purification (CBS^FL) (human), P35520.
T1 chain: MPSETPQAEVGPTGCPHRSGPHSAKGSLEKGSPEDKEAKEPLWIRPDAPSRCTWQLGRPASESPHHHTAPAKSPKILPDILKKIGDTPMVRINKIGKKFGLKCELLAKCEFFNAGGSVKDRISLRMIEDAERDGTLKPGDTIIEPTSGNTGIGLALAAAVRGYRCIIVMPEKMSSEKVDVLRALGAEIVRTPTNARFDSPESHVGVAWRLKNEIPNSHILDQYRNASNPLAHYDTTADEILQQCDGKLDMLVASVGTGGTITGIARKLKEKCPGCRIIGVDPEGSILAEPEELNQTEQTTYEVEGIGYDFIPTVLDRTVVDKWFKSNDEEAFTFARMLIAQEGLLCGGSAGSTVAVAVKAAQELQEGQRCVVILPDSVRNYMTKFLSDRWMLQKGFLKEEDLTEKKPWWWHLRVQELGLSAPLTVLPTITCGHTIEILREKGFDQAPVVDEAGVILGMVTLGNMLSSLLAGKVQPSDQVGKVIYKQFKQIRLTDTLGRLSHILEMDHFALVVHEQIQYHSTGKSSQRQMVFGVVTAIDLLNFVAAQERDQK
Put plainly: SEC; analytical Superose 6 Increase 10/300 GL; 25 mM HEPES pH 7.5, 500 mM NaCl, 0.5 mM TCEP, 5% glycerol; 250 µl loaded at 3.0 mg/ml; self-association. Background: Size exclusion chromatography separates by hydrodynamic size, large species first.

The target of experiment [2] is T1, full-length human cystathionine …. Put plainly: native gel or EMSA; Coomassie-stained clear-native and blue-native PAGE; 25 mM HEPES pH 7.5, 200 mM NaCl, 2.0 mM TCEP; 1.0 mg/ml, 8.0 µg protein; without or with 1 mM SAM (no apparent effect on the oligomeric status); self-association. On the technique in general: A gel shift assay detects complexes by their altered migration in electrophoresis.

Experiment [3] deals with T2, full-length human cystathionine beta-synthase with a permanent C-terminal His-tag (CBS^FL-CHis) (human), P35520.
T2 chain: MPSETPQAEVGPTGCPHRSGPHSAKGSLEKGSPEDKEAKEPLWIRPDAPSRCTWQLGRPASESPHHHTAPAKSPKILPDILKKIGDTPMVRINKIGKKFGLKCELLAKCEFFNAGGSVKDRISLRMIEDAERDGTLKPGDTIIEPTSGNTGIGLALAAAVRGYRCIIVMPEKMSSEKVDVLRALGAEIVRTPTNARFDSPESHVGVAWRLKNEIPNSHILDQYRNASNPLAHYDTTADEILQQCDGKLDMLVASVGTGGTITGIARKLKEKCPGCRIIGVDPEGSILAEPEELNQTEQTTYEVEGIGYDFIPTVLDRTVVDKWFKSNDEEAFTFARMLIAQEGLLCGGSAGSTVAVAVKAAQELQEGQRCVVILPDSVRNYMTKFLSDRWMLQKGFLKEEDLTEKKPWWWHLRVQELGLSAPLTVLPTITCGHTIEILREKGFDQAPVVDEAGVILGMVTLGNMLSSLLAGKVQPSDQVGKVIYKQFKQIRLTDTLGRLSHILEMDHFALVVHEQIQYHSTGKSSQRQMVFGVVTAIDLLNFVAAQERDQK
Put plainly: SEC; analytical Superose 6 Increase 10/300 GL; 25 mM HEPES pH 7.5, 500 mM NaCl, 0.5 mM TCEP, 5% glycerol; 250 µl loaded at 3.0 mg/ml; self-association.

The term stoichiometry N denotes a count of units in the complex or per binding partner.

B1: full-length human cystathionine beta-synthase, N-terminal His-tag removed during purification (CBS^FL), P35520 1-551 (enzyme)
chain: MPSETPQAEVGPTGCPHRSGPHSAKGSLEKGSPEDKEAKEPLWIRPDAPSRCTWQLGRPASESPHHHTAPAKSPKILPDILKKIGDTPMVRINKIGKKFGLKCELLAKCEFFNAGGSVKDRISLRMIEDAERDGTLKPGDTIIEPTSGNTGIGLALAAAVRGYRCIIVMPEKMSSEKVDVLRALGAEIVRTPTNARFDSPESHVGVAWRLKNEIPNSHILDQYRNASNPLAHYDTTADEILQQCDGKLDMLVASVGTGGTITGIARKLKEKCPGCRIIGVDPEGSILAEPEELNQTEQTTYEVEGIGYDFIPTVLDRTVVDKWFKSNDEEAFTFARMLIAQEGLLCGGSAGSTVAVAVKAAQELQEGQRCVVILPDSVRNYMTKFLSDRWMLQKGFLKEEDLTEKKPWWWHLRVQELGLSAPLTVLPTITCGHTIEILREKGFDQAPVVDEAGVILGMVTLGNMLSSLLAGKVQPSDQVGKVIYKQFKQIRLTDTLGRLSHILEMDHFALVVHEQIQYHSTGKSSQRQMVFGVVTAIDLLNFVAAQERDQK
As for B1, the stoichiometry N in experiment [1] and in experiment [2] was greater than 4 in each case.

B2: full-length human cystathionine beta-synthase with a permanent C-terminal His-tag (CBS^FL-CHis), P35520 1-551 (enzyme)
chain: MPSETPQAEVGPTGCPHRSGPHSAKGSLEKGSPEDKEAKEPLWIRPDAPSRCTWQLGRPASESPHHHTAPAKSPKILPDILKKIGDTPMVRINKIGKKFGLKCELLAKCEFFNAGGSVKDRISLRMIEDAERDGTLKPGDTIIEPTSGNTGIGLALAAAVRGYRCIIVMPEKMSSEKVDVLRALGAEIVRTPTNARFDSPESHVGVAWRLKNEIPNSHILDQYRNASNPLAHYDTTADEILQQCDGKLDMLVASVGTGGTITGIARKLKEKCPGCRIIGVDPEGSILAEPEELNQTEQTTYEVEGIGYDFIPTVLDRTVVDKWFKSNDEEAFTFARMLIAQEGLLCGGSAGSTVAVAVKAAQELQEGQRCVVILPDSVRNYMTKFLSDRWMLQKGFLKEEDLTEKKPWWWHLRVQELGLSAPLTVLPTITCGHTIEILREKGFDQAPVVDEAGVILGMVTLGNMLSSLLAGKVQPSDQVGKVIYKQFKQIRLTDTLGRLSHILEMDHFALVVHEQIQYHSTGKSSQRQMVFGVVTAIDLLNFVAAQERDQK
B2 displayed a stoichiometry N in experiment [3] greater than 4.
